Measurements taken from publication PMC4997346 (2016).
No end group written: not given here.

T1: FVIIa/TF extrinsic tenase complex [E] (Homo sapiens, UniProt P08709)
T1 chain 1: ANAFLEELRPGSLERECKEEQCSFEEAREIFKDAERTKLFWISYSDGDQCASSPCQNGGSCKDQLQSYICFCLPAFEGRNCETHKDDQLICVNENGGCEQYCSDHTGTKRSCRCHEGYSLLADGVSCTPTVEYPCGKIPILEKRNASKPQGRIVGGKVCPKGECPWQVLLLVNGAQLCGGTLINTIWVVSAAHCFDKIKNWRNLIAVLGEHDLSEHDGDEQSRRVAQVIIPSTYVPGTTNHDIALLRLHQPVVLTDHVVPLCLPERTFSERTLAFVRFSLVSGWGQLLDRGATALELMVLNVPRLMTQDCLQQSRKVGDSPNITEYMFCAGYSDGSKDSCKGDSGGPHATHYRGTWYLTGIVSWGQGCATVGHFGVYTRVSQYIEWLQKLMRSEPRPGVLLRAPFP
T1 chain 2: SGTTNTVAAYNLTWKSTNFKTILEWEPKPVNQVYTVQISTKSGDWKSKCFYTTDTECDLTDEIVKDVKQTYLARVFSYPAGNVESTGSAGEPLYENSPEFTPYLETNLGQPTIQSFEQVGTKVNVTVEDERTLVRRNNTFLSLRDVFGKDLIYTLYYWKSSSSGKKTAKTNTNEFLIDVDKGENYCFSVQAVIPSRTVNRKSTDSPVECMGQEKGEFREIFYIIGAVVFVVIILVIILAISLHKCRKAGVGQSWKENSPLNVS

T2: FVIIa [E] (Homo sapiens, UniProt P08709)
T2 chain 1: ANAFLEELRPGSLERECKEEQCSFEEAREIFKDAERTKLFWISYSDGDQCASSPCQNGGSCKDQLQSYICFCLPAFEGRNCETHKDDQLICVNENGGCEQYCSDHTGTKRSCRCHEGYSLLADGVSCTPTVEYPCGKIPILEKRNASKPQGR
T2 chain 2: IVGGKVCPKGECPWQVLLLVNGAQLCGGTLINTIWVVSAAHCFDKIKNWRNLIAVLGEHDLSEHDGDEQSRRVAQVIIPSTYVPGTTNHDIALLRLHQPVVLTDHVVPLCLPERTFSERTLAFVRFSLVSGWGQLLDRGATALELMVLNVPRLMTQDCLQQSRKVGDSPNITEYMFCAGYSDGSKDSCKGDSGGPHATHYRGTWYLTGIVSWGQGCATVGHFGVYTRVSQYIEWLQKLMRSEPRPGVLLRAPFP

T3: FVIIa/sTF complex [E] (Homo sapiens, UniProt P08709)
T3 chain 1: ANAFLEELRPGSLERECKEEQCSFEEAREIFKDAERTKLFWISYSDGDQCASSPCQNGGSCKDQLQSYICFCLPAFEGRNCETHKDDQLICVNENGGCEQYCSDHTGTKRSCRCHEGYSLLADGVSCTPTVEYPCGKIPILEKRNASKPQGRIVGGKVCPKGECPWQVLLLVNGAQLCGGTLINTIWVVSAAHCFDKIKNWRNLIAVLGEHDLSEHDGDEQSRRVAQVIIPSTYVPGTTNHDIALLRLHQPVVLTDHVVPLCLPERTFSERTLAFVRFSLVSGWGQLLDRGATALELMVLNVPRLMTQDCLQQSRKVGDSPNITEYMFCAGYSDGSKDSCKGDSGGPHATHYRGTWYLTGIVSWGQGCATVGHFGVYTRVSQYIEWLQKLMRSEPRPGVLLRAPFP
T3 chain 2: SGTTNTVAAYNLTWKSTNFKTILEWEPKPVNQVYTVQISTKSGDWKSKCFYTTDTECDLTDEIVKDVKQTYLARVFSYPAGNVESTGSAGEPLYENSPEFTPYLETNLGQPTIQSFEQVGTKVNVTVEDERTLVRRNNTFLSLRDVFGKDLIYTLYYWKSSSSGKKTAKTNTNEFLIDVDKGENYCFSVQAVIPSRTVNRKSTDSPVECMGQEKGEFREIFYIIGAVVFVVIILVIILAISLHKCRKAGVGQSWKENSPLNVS


Tests used:
[1] = target: T1, FVIIa/TF extrinsic tenase complex [E]; experiment: FX activation inhibition kinetics (Lineweaver-Burk secondary plot)
[2] = target: intrinsic tenase complex (FIXa/FVIIIa) (Homo sapiens, UniProt P00740); experiment: as above
[3] = target: T2, FVIIa [E]; experiment: as above
[4] = target: T1, FVIIa/TF extrinsic tenase complex [E]; experiment: FIX activation inhibition kinetics (Lineweaver-Burk secondary plot)
[5] = target: FVIIa/TF/FX extrinsic tenase complex [ES] (Homo sapiens, UniProt P08709); experiment: FX activation inhibition kinetics (Lineweaver-Burk secondary plot, Ki')
[6] = target: FVIIa/FX complex [ES] (Homo sapiens, UniProt P08709); experiment: as above
[7] = target: FVIIa/TF/FIX complex [ES] (Homo sapiens, UniProt P08709); experiment: FIX activation inhibition kinetics (Lineweaver-Burk secondary plot, Ki')
[8] = target: T3, FVIIa/sTF complex [E]; experiment: FX activation inhibition kinetics (Lineweaver-Burk secondary plot)
[9] = target: FVIIa/sTF/FX complex [ES] (Homo sapiens, UniProt P08709); experiment: FX activation inhibition kinetics (Lineweaver-Burk secondary plot, Ki')

Sequence of intrinsic tenase complex (FIXa/FVIIIa) (P00740 47-461, chain 1 of 2): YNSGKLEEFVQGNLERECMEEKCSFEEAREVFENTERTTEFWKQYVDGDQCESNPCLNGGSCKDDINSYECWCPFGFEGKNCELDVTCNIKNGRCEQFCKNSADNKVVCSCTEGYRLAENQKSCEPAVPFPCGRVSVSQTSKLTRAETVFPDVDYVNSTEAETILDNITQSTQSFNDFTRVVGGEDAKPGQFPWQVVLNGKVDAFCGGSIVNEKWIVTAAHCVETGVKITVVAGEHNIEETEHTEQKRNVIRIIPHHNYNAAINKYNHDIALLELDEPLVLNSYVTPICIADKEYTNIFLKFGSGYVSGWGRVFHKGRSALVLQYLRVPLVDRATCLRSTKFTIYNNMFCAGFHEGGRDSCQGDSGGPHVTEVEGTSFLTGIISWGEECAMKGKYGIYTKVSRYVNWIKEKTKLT
Sequence of intrinsic tenase complex (FIXa/FVIIIa) (P00451 20-2351, chain 2 of 2, further chain): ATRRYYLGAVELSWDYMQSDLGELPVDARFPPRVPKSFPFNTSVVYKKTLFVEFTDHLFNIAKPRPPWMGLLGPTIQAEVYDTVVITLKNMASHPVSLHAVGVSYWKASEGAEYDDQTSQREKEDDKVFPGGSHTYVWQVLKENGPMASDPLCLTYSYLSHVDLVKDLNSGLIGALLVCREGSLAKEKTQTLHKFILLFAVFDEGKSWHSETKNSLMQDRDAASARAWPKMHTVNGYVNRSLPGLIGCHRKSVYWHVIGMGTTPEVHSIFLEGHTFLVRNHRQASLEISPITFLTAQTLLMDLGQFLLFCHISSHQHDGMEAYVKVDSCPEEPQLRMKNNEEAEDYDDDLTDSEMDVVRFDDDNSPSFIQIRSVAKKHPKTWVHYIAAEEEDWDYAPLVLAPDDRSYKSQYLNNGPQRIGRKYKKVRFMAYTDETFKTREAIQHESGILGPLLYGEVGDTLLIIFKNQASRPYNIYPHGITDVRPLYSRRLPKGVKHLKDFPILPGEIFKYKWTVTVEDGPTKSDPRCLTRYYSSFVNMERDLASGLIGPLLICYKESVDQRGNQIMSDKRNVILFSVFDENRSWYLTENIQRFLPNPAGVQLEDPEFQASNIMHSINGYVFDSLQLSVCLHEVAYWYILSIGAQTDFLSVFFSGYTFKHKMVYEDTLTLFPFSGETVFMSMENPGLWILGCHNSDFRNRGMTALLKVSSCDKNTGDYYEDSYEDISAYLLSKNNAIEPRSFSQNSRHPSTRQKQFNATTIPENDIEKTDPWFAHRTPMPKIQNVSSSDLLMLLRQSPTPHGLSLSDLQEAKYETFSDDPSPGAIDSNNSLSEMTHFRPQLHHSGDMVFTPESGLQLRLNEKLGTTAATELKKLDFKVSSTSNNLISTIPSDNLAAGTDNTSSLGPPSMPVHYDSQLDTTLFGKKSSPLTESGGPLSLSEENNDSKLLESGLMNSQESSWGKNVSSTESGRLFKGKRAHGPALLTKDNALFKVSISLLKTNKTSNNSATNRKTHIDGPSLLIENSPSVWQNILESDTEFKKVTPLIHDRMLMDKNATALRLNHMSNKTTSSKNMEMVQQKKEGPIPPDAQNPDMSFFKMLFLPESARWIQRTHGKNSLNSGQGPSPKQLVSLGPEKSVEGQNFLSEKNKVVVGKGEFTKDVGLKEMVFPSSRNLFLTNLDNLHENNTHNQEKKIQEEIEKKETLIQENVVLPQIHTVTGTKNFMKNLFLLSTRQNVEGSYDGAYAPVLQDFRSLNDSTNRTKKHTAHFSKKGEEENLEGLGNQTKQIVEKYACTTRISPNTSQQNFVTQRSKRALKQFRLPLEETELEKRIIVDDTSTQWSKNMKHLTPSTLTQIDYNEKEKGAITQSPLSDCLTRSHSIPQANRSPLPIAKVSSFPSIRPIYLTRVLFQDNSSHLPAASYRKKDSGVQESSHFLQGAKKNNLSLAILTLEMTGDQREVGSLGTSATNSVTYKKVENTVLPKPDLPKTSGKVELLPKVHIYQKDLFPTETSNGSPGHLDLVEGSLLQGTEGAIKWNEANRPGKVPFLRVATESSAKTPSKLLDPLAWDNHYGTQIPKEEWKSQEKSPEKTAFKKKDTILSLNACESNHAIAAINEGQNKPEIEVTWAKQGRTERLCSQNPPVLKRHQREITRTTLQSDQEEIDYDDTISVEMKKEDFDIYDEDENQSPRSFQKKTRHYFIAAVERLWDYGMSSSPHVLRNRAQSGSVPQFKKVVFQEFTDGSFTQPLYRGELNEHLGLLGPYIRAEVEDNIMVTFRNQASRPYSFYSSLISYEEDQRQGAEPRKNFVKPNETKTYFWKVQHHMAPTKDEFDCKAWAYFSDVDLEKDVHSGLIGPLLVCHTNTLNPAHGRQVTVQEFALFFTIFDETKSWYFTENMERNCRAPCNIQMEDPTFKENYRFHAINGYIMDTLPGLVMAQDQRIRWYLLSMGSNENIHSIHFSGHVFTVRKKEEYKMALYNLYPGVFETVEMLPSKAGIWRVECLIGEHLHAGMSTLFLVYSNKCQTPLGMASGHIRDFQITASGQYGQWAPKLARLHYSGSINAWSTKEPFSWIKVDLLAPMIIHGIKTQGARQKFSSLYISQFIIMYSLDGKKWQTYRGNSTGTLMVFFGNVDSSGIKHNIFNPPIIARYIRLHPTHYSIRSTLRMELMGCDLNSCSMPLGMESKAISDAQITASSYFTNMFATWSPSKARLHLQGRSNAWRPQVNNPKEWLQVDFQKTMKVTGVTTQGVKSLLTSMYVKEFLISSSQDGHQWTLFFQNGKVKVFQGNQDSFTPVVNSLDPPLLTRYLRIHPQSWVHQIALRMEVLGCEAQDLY

Row | Binder | Ki [1] [µM] | Ki [2] [µM] | Ki [3] [µM] | Ki [4] [µM] | Ki [5] [µM] | Ki [6] [µM] | Ki [7] [µM] | Ki [8] [µM] | Ki [9] [µM]
1 | exactin (protein, disulfide (positions not given here); also: four disulfide bonds, pairing not given here) LECYQKSKVVTCQPEQKFCYSDTTMFFPNHPVYLSGCTFSCTEEGNRRCCTTDKCNR | 0.154 | 1.67 | 0.184 | 129 | 0.0306 | 0.103 | 38.7 |  | 
2 | exactin (protein) LECYQKSKVVTCQPEQKFCYSDTTMFFPNHPVYLSGCTFSCTEEGNRRCCTTDKCNR |  |  |  |  |  |  |  | 1250 | 295
